Results published in IntAct's records for PubMed 11359767.

B1: E3 ubiquitin-protein ligase NEDD4 (Homo sapiens), P46934 (parent)
chain: MAQSLRLHFAARRSNTYPLSETSGDDLDSHVHMCFKRPTRISTSNVVQMKLTPRQTALAPLIKENVQSQERSSVPSSENVNKKSSCLQISLQPTRYSGYLQSSNVLADSDDASFTCILKDGIYSSAVVDNELNAVNDGHLVSSPAICSGSLSNFSTSDNGSYSSNGSDFGSCASITSGGSYTNSVISDSSSYTFPPSDDTFLGGNLPSDSTSNRSVPNRNTTPCEIFSRSTSTDPFVQDDLEHGLEIMKLPVSRNTKIPLKRYSSLVIFPRSPSTTRPTSPTSLCTLLSKGSYQTSHQFIISPSEIAHNEDGTSAKGFLSTAVNGLRLSKTICTPGEVRDIRPLHRKGSLQKKIVLSNNTPRQTVCEKSSEGYSCVSVHFTQRKAATLDCETTNGDCKPEMSEIKLNSDSEYIKLMHRTSACLPSSQNVDCQININGELERPHSQMNKNHGILRRSISLGGAYPNISCLSSLKHNCSKGGPSQLLIKFASGNEGKVDNLSRDSNRDCTNELSNSCKTRDDFLGQVDVPLYPLPTENPRLERPYTFKDFVLHPRSHKSRVKGYLRLKMTYLPKTSGSEDDNAEQAEELEPGWVVLDQPDAACHLQQQQEPSPLPPGWEERQDILGRTYYVNHESRRTQWKRPTPQDNLTDAENGNIQLQAQRAFTTRRQISEETESVDNRESSENWEIIREDEATMYSNQAFPSPPPSSNLDVPTHLAEELNARLTIFGNSAVSQPASSSNHSSRRGSLQAYTFEEQPTLPVLLPTSSGLPPGWEEKQDERGRSYYVDHNSRTTTWTKPTVQATVETSQLTSSQSSAGPQSQASTSDSGQQVTQPSEIEQGFLPKGWEVRHAPNGRPFFIDHNTKTTTWEDPRLKIPAHLRGKTSLDTSNDLGPLPPGWEERTHTDGRIFYINHNIKRTQWEDPRLENVAITGPAVPYSRDYKRKYEFFRRKLKKQNDIPNKFEMKLRRATVLEDSYRRIMGVKRADFLKARLWIEFDGEKGLDYGGVAREWFFLISKEMFNPYYGLFEYSATDNYTLQINPNSGLCNEDHLSYFKFIGRVAGMAVYHGKLLDGFFIRPFYKMMLHKPITLHDMESVDSEYYNSLRWILENDPTELDLRFIIDEELFGQTHQHELKNGGSEIVVTNKNKKEYIYLVIQWRFVNRIQKQMAAFKEGFFELIPQDLIKIFDENELELLMCGLGDVDVNDWREHTKYKNGYSANHQVIQWFWKAVLMMDSEKRIRLLQFVTGTSRVPMNGFAELYGSNGPQSFTVEQWGTPEKLPRAHTCFNRLDLPPYESFEELWDKLQMAIENTQGFDGVD
partner: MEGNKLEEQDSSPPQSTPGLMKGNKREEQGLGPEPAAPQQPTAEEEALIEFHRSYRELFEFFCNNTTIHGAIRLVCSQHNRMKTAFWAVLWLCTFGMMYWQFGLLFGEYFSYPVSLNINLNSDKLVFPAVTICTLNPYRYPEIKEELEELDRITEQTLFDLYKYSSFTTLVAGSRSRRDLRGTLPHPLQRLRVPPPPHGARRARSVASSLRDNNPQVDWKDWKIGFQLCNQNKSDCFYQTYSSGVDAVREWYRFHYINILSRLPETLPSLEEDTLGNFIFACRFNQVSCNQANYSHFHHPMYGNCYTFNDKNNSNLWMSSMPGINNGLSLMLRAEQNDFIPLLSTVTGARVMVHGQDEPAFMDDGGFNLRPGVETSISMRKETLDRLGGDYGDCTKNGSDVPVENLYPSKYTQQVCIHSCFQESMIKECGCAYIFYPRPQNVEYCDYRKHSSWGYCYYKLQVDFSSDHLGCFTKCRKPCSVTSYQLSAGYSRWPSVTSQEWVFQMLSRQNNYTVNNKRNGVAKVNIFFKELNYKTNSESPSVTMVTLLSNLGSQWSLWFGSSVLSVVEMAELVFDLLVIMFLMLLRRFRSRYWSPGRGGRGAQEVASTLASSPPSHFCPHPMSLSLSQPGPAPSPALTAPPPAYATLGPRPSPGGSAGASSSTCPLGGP

Variants of: B1
Conditions: with scnna_human SCNN1A

effect of a mutation on the interaction | Variant
disrupting interaction strength | I859W;H861G
with no effect | I911W;H913G
with no effect | V786W;H788G
disrupting interaction strength | V786W;H788G;I859W;H861G;I911W;H913G

More lines, now with the values behind:

Variant | effect of a mutation on the interaction
V629W;H631G;V786W;H788G;I859W;H861G | disrupting interaction strength
V629W;H631G | with no effect
V629W;H631G;V786W;H788G;I859W;H861G;I911W;H913G | disrupting interaction strength
V629W;H631G;V786W;H788G;I911W;H913G | with no effect
V629W;H631G;I859W;H861G;I911W;H913G | disrupting interaction strength
